The source of these data is publication PMC2823288 (Nature structural & molecular biology, 2009).

The target in the assay is Full-length human DDB1 (human, UniProt Q16531 1-1140). Kind of assay: crystal structure.
Chain of Full-length human DDB1 (Q16531 whole entry): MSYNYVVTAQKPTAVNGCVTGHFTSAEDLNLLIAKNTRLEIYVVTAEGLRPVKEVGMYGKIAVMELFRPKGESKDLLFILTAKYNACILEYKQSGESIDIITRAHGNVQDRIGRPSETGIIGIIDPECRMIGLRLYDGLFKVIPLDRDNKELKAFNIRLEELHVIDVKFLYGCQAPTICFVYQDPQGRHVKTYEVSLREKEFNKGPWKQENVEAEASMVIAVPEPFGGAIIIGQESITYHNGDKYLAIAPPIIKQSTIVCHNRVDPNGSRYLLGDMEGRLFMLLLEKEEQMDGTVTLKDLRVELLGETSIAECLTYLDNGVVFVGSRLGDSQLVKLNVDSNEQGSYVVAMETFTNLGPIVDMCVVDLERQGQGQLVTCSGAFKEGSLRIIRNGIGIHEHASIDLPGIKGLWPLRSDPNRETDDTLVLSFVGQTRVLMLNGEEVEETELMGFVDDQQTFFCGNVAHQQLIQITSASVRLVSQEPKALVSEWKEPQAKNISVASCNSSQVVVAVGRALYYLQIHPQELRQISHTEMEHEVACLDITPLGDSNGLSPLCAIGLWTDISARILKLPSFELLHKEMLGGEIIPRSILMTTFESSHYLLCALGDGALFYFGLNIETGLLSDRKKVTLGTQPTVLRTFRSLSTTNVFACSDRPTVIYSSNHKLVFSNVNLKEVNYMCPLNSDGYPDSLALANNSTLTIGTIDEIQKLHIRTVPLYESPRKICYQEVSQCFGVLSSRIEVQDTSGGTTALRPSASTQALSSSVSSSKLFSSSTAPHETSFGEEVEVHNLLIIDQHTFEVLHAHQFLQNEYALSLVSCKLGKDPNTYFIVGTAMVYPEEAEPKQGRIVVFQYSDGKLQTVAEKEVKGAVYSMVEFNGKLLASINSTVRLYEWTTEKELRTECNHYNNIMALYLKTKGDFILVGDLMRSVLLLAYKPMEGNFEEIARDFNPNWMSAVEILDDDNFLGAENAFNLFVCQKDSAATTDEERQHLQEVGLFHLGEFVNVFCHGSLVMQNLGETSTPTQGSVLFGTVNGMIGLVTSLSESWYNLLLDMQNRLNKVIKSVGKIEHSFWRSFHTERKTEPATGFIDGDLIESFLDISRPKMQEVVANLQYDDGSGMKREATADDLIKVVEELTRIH

B1: DCAF9 peptide (amino acids 5 to 17 of DCAF9/WDTC1) (peptide, UniProt Q8N5D0 5-17, looked up)
peptide: NITRDLIRRQIKE
For B1, the binding result is given as “binds”.
